Experimental data reported in patent US20240228568A1 (CENTRO DE INGENIER A GEN TICA Y BIOTECNOLOG A, published 2024).
Where no end group is shown, it is not given here. [ ]: non-standard residue; d: D form.

T1: IL-15 receptor subunit on CTLL-2 cells
T1 sequence (Q60819 whole entry, species assumed, looked up): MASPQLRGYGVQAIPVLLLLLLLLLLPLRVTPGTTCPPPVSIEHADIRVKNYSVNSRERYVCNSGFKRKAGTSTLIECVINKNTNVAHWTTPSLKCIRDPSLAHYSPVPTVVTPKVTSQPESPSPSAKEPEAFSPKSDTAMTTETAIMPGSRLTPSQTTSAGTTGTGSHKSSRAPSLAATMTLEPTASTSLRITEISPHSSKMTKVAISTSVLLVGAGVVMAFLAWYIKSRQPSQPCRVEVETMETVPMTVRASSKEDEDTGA


Tests used:
[1] = target: T1, IL-15 receptor subunit on CTLL-2 cells; experiment: cell-based or functional assay
[2] = target: T1, IL-15 receptor subunit on CTLL-2 cells; experiment: cell-based or functional assay; remark: listed apart in the source

IC50 in the CTLL-2 cell proliferation assay [1] [µM]	antagonist effect on IL-15-induced proliferation, fold against Peptide 1 [2] [times]	antagonist effect on IL-15-induced proliferation, fold against Peptide 5 [2] [times]	Binder
8	16	3	KVT[dA]MKCFLL-NH2 (also: disulfide-linked homodimer through the Cys) [Peptide 12]
130			KVTAMKCFLL (not fully specified (C-terminus)) [Peptide 1]
28			KVT[dA]MKCFLL-NH2 [Peptide 5]
